# Test results from paper PMC12636710.
# What was measured:
# [1] = molecular target: human apolipoprotein E, apoE4 isoform (ε4 allele) (human) (UniProt P02649); experiment: co-IP
# [2] = molecular target: prion protein (PrP) (mouse (endogenous in brain of APOE-TR mice)) (UniProt P04925); experiment: velocity sedimentation in a sucrose gradient
# Sequence of human apolipoprotein E, apoE4 isoform (ε4 allele) (human) (P02649 19-317): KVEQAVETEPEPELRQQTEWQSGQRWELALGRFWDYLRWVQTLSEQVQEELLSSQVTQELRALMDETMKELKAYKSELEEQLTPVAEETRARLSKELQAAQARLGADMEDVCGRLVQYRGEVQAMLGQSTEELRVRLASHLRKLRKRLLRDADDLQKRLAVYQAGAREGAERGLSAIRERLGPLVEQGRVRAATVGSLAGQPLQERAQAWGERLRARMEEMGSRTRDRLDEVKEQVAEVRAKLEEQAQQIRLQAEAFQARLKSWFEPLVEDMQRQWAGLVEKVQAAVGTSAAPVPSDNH
# Sequence of prion protein (PrP) (P04925 23-230): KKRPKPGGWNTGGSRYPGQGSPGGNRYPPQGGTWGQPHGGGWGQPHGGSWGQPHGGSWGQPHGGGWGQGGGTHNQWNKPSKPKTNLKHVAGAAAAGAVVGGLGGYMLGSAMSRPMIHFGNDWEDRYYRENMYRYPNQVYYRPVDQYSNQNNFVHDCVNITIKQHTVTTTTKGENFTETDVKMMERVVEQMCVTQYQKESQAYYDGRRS
# Sequence of prion protein (PrP), P04925 23-230 (natural protein; other documents disagree on this pair) (P04925 23-230): as above
Substance,fold PrP/apoE OD ratio in the immunoprecipitate against ε2/ε2 22L mice [1] [fold],fold PrP/apoE OD ratio in the immunoprecipitate against ε3/ε3 22L mice [1] [fold],stoichiometry N [2]
prion protein (PrP) (from UniProt P04925 23-230) (natural protein),2.8,1.7,–
"prion protein (PrP), P04925 23-230 (natural protein; other documents disagree on this pair)",–,–,> 10
